Laboratory results published in article PMC6657678, “The Bub1-TPR Domain Interacts Directly with Mad3 to Generate Robust Spindle Checkpoint Arrest” (Current Biology, 2019).

Target: T1, His-Bub1TPR (fission yeast Bub1 residues 22-184) (S. pombe, UniProt O94751 22-184)
T1 construct: Bub1, S. pombe, TPR domain, residues 22-184; Cloned into pET-DUET; also called recombinant Bub1-TPR; source: E. coli ArcticExpress, purified (cobalt IMAC, dialysis); not shown: His, N-terminal, kept
T1 sequence (looked up): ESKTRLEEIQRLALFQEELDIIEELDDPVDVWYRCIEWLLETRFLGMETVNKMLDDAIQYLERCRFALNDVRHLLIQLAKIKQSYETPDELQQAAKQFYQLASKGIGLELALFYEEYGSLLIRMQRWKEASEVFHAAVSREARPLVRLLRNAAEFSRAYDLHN
Assay: SEC; Superdex 200 increase 10/300 in 50 mM Tris pH 8.0, 150 mM NaCl, 5% glycerol, 2 mM DTT; proteins alone and mixed, fractions on SDS-PAGE
Conditions: both partners purified

- binding result: binds
B1: His-GFP-Mad3TPR (fission yeast Mad3 residues 44-201) (domain or fragment, S. pombe, UniProt O59767 44-201, looked up)
chain: TEKEVAGLQKERMGHERKIETSESLDDPLQVWIDYIKWTLDNFPQGETKTSGLVTLLERCTREFVRNPLYKDDVRYLRIWMQYVNYIDEPVELFSFLAHHHIGQESSIFYEEYANYFESRGLFQKADEVYQKGKRMKAKPFLRFQQKYQQFTHRWLEF
notes: Mad3, S. pombe, TPR domain, residues 44-201; Cloned into the 9GFP (N-terminal His-GFP tag) LIC vector; source: E. coli ArcticExpress, purified (cobalt IMAC, dialysis); not shown: His, N-terminal, kept; GFP, N-terminal, kept
